Laboratory results: patent US20090324700A1, “METHODS AND COMPOSITIONS FOR THE INHIBITION OF CATHEPSINS” (priority 2003, published 2009)

Columns and labels:
[1] = biological target: T1, human cathepsin G (Homo sapiens, UniProt P08311); assay: Protease specificity of Spi2A: cathepsin G; type: biochemical; details: protease 20 nM, Spi2A 200 nM, 1 h at 37° C; FIG. 6B
T1 construct: purchased Calbiochem or Athens Research and Technology
T1 sequence (P08311 21-244): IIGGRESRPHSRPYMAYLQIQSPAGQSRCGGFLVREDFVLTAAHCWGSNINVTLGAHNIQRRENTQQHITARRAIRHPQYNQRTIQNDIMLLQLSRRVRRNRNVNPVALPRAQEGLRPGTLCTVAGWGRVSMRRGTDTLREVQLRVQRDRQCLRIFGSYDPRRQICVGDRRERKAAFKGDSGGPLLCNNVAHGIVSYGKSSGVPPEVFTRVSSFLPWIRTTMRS
Experimental: (§1) Protease specificity of Spi2A. RelA^−/− MEFs were transduced with retrovirus encoding Spi2A with a C-terminal 3×FLAG epitope tag and Spi2A-3×FLAG purified using a method described previously (Cooley et al., 1998). Briefly, cells (3×10^9) were lysed and Spi2A-3×FLAG (75 μg) purified by batch Q-Fast Flow ion-exchange chromatography (Pharmacia Biotech) after elution at 160-220 mM NaCl followed by anti-FLAG antibody columns, performed according to manufacturer's instructions (Sigma-Aldrich). Spi2A-3×FLAG was dialysed into PBS and stored as aliquots at −80° C. until needed.
(§2) Proteases were purchases from the manufacturers (Calbiochem or Athens Research and Technology) except granzymes A and B which were purified as described (Hanna et al., 1993) and cathespin V and K, which were purified as described (Bromme et al., 1999; Linnevers et al., 1997). Proteases (20 nM) were incubated in the appropriate assay buffer with Spi2A at 200 nM (at least 10-fold excess of inhibitor to maintain pseudo-first order conditions) for 1 h at 37° C. Control samples included only the enzyme, without the inhibitor. At the end of 1 h protease activity was assayed. […] Substrate hydrolysis was measured in a fluorescence microtiter plate reader (Spectramax Gemini XS, Molecular Devices). Percentage inhibition was calculated from the residual enzyme activity compared to no Spi2A controls. […]

[2] = biological target: T2, cathepsin B (Homo sapiens, UniProt P07858); assay: Protease specificity of Spi2A: cathepsin B; type: biochemical; details: protease 20 nM, Spi2A 200 nM, 1 h at 37° C; FIG. 6B
T2 construct: purchased Calbiochem or Athens Research and Technology
Experimental: as §1, §2

[3] = biological target: T3, human cathepsin H (Homo sapiens, UniProt P09668); assay: Protease specificity of Spi2A: cathepsin H; type: biochemical; details: protease 20 nM, Spi2A 200 nM, 1 h at 37° C; FIG. 6B
T3 construct: purchased Calbiochem or Athens Research and Technology
T3 sequence (P09668 98-335): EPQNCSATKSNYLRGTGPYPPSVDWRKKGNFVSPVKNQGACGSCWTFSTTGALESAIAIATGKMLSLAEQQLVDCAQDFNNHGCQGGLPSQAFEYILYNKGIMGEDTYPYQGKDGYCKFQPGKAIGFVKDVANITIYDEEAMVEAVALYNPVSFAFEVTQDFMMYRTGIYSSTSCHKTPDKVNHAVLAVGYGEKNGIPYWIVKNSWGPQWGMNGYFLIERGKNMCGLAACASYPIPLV
Experimental: as §1, §2

[4] = biological target: T4, caspase 9 (Homo sapiens, UniProt P55211); assay: Protease specificity of Spi2A: caspase 9; type: biochemical; details: FIG. 6B
T4 construct: purchased Calbiochem or Athens Research and Technology
T4 sequence (P55211 1-315 limits assumed): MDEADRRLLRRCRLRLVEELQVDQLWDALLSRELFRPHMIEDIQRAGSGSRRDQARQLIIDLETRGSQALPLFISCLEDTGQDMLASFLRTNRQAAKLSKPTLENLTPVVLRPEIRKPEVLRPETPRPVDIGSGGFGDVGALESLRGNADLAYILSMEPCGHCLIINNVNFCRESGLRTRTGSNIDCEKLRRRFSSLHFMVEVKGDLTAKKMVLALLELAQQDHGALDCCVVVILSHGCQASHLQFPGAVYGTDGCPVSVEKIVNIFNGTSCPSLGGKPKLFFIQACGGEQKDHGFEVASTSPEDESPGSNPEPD
T4 sequence (P55211 331-416 limits assumed): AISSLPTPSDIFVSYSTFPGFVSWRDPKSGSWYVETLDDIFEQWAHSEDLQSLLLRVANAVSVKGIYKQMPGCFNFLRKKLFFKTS
Experimental: as §1, §2

[5] = test system: RelA^−/− MEFs; assay: Survival assay, TNF-α and CHX, RelA^−/− MEFs; type: cell-based, mouse
[6] = test system: NIH3T3 cells; assay: TNF-α death assays, NIH3T3 cells; type: cell-based; details: TNF-α + Z-VAD.fmk 50 μM; FIG. 9B, 10B
Experimental: TNF-α death assays. NIH3T3 cells were transduced with MIGR1 retrovirus (Zhang and Ren, 1998) encoding either GFP alone, or Spi2A in the forward (sense) or reverse (antisense) orientation and stable clones generated, as described previously (Liu et al., 2003). Cells were treated with TNF-α (R&D) and after 16 h the number of live GFP-positive adherent cells were counted by flow cytometry (Liu et al., 2003). Live cells were defined as those that excluded propidium iodide (PI-negative) and had the appropriate size, as defined by forward and side light scatter characteristics. Caspase activity was inhibited by pre-treatment of cells or extracts for 1 h with Z-VAD.fmk (ICN Biomedicals Inc; 50 μM). […] In anti-sense experiments the level of Spi2A mRNA was quantitated by real-time PCR using primers and probes specific for Spi2A (Inglis et al., 1991) and cyclofilin A control mRNA (Medhurst et al., 2000), 4 h after treatment with Z-VAD.fmk ([…]) and TNF-α (10 ng/ml), as described previously (Liu et al., 2003).

[7] = test system: secondary anti-LCMV CD8 cells; details: mouse, in vivo

B1: Spi2A: murine Spi2A polypeptide, SEQ ID NO:2; purified as C-terminal 3×FLAG protein or expressed from MIGR1 retrovirus in cells and bone-marrow chimeras (protein, listed as Mus musculus)
chain: MAGVSPAVFGCPDVTLGRNTAVREVQENVTSVDSLTLVSSNTDFAFSLYRKLVLKNPDENVVFSPFSICTALALLSLGAKSNTLKEILEGLKFNLTETPEPDIHQGFRYLLDLLSQPGNQVQISTGSALFIEKHLQILAEFKEKARALYQAEAFTADFQQPLKATKLINDYVSNHTQGKIKELISGLKESTLMVLVNYIYFKGKWKNPFDPNDTFKSEFYLDEKRSVIVSMMKTGYLTTPYFRDEELSCTVVELKYTGNASAMFILPDQGRMQQVEASLQPETLRKWKNSLKPRMIHELRLPKFSISTDYSLEHILPELGIREVFSTHADLSAITGTKDLRVSQVVHKAVLDVAEKGTEAAAATGMAGVGCCAVFDFLEIFFNRPFLMIISDTKAHIALFMAKVTNPERSTNFPNGEGASSQRLESKRLCFGDPLCLIGQ
modifications: C-terminal 3xFLAG tag
notes: purified as C-terminal 3×FLAG protein or expressed from MIGR1 retrovirus in cells and bone-marrow chimeras
Inhibition of protease by Spi2A (percentage inhibition) [1]: inhibited | Inhibition of protease by Spi2A (percentage inhibition) [2]: extended to all of the lysosomal, papain-like proteases that were examined | Inhibition of protease by Spi2A (percentage inhibition) [3]: extended to all of the lysosomal, papain-like proteases that were examined | Inhibition of protease by Spi2A (percentage inhibition) [4]: did not extend to any of the caspases tested | Protection at low concentrations of TNF-α ([5]; 0.5 ng/ml TNF-α, FIG. 2B): virtually complete | Percentage survival after TNF-α and CHX, retrovirally transduced cells vs GFP ([5]; 16 h, CHX 0.1 μg/ml, FIG. 1B, 2B): markedly improved survival | Protection at high concentrations of TNF-α ([5]; after 16 hours, FIG. 2B): dramatic | Survival against TNF-α in the absence of caspase activity, transduced clones vs GFP [6]: markedly improved survival | Number of anti-LCMV CD8 cells per spleen GFP^− [7]: 45.94 ± 7.55 (n = 4) ×10^−5 | Percentages and absolute numbers of secondary anti-LCMV CD8 cells (recall response) [7]: significantly increased | proportional change of anti-LCMV CD8 cells compared to the GFP control [7]: (417%)
